Experimental data as given in article PMC12530519.

Biological target: Ty1c CA(F323S) (S. cerevisiae)
Assay: SEC-MALS; individual proteins, 12.5-200 µM, Superdex INCREASE 200 10/300 GL at 298 K, 50 mM Tris-HCl, 800 mM NaCl, 0.5 mM TCEP, 3 mM NaN3, pH 8.5

stoichiometry N: 2
Substance: Ty1c CA(F323S) (domain or fragment)
